Assay results from patent publication US20160201097A1, “Materials and Methods of Producing 7-Carbon Monomers” (INVISTA North America S.á.r.l., priority 2014, published 2016).

B1: SEQ ID NO: 3: Mycobacterium smegmatis carboxylate reductase, N-terminal HIS tagged (protein, listed as Mycobacterium smegmatis)
chain: MTSDVHDATDGVTETALDDEQSTRRIAELYATDPEFAAAAPLPAVVDAAHKPGLRLAEILQTLFTGYGDRPALGYRARELATDEGGRTVTRLLPRFDTLTYAQVWSRVQAVAAALRHNFAQPIYPGDAVATIGFASPDYLTLDLVCAYLGLVSVPLQHNAPVSRLAPILAEVEPRILTVSAEYLDLAVESVRDVNSVSQLVVFDHHPEVDDHRDALARAREQLAGKGIAVTTLDAIADEGAGLPAEPIYTADHDQRLAMILYTSGSTGAPKGAMYTEAMVARLWTMSFITGDPTPVINVNFMPLNHLGGRIPISTAVQNGGTSYFVPESDMSTLFEDLALVRPTELGLVPRVADMLYQHHLATVDRLVTQGADELTAEKQAGAELREQVLGGRVITGFVSTAPLAAEMRAFLDITLGAHIVDGYGLTETGAVTRDGVIVRPPVIDYKLIDVPELGYFSTDKPYPRGELLVRSQTLTPGYYKRPEVTASVFDRDGYYHTGDVMAETAPDHLVYVDRRNNVLKLAQGEFVAVANLEAVFSGAALVRQIFVYGNSERSFLLAVVVPTPEALEQYDPAALKAALADSLQRTARDAELQSYEVPADFIVETEPFSAANGLLSGVGKLLRPNLKDRYGQRLEQMYADIAATQANQLRELRRAAATQPVIDTLTQAAATILGTGSEVASDAHFTDLGGDSLSALTLSNLLSDFFGFEVPVGTIVNPATNLAQLAQHIEAQRTAGDRRPSFTTVHGADATEIRASELTLDKFIDAETLRAAPGLPKVTTEPRTVLLSGANGWLGRFLTLQWLERLAPVGGTLITIVRGRDDAAARARLTQAYDTDPELSRRFAELADRHLRVVAGDIGDPNLGLTPEIWHRLAAEVDLVVHPAALVNHVLPYRQLFGPNVVGTAEVIKLALTERIKPVTYLSTVSVAMGIPDFEEDGDIRTVSPVRPLDGGYANGYGNSKWAGEVLLREAHDLCGLPVATFRSDMILAHPRYRGQVNVPDMFTRLLLSLLITGVAPRSFYIGDGERPRAHYPGLTVDFVAEAVTTLGAQQREGYVSYDVMNPHDDGISLDVFVDWLIRAGHPIDRVDDYDDWVRRFETALTALPEKRRAQTVLPLLHAFRAPQAPLRGAPEPTEVFHAAVRTAKVGPGDIPHLDEALIDKYIRDLREFGLI
modifications: N-terminal His tag
notes: Mycobacterium smegmatis carboxylate reductase, N-terminal HIS tagged
B2: SEQ ID NO: 12: Vibrio fluvialis ω-transaminase, N-terminal HIS tagged (protein, listed as Vibrio fluvialis)
chain: MNKPQSWEARAETYSLYGFTDMPSLHQRGTVVVTHGEGPYIVDVNGRRYLDANSGLWNMVAGFDHKGLIDAAKAQYERFPGYHAFFGRMSDQTVMLSEKLVEVSPFDSGRVFYTNSGSEANDTMVKMLWFLHAAEGKPQKRKILTRWNAYHGVTAVSASMTGKPYNSVFGLPLPGFVHLTCPHYWRYGEEGETEEQFVARLARELEETIQREGADTIAGFFAEPVMGAGGVIPPAKGYFQAILPILRKYDIPVISDEVICGFGRTGNTWGCVTYDFTPDAIISSKNLTAGFFPMGAVILGPELSKRLETAIEAIEEFPHGFTASGHPVGCAIALKAIDVVMNEGLAENVRRLAPRFEERLKHIAERPNIGEYRGIGFMWALEAVKDKASKTPFDGNLSVSERIANTCTDLGLICRPLGQSVVLCPPFILTEAQMDEMFDKLEKALDKVFAEVA
modifications: N-terminal His tag
notes: Vibrio fluvialis ω-transaminase, N-terminal HIS tagged
B3: SEQ ID NO: 9: Pseudomonas syringae ω-transaminase, N-terminal HIS tagged (protein, listed as Pseudomonas syringae)
chain: MSANNPQTLEWQALSSEHHLAPFSDYKQLKEKGPRIITRAEGVYLWDSEGNKILDGMSGLWCVAIGYGREELADAASKQMRELPYYNLFFQTAHPPVLELAKAISDIAPEGMNHVFFTGSGSEGNDTMLRMVRHYWALKGQPNKKTIISRVNGYHGSTVAGASLGGMTYMHEQGDLPIPGVVHIPQPYWFGEGGDMTPDEFGIWAAEQLEKKILELGVENVGAFIAEPIQGAGGVIVPPDSYWPKIKEILSRYDILFAADEVICGFGRTSEWFGSDFYGLRPDMMTIAKGLTSGYVPMGGLIVRDEIVAVLNEGGDFNHGFTYSGHPVAAAVALENIRILREEKIVERVRSETAPYLQKRLRELSDHPLVGEVRGVGLLGAIELVKDKTTRERYTDKGAGMICRTFCFDNGLIMRAVGDTMIIAPPLVISFAQIDELVEKARTCLDLTLAVLQG
modifications: N-terminal His tag
notes: Pseudomonas syringae ω-transaminase, N-terminal HIS tagged

Assays:
Assay type in all cases: biochemical
[1] = ω-transaminase activity, forward direction: pimelate semialdehyde to 7-aminoheptanoate (pyruvate formation by RP-HPLC); conditions: for acceptance of pimelate semialdehyde as substrate (conversion of L-alanine to pyruvate): cell free extract, 10 mM pimelate semialdehyde, 10 mM L-alanine, pH 7.5, 25° C., 4 h, against the empty vector control (FIG. 14); for reversibility of ω-transaminase activity: pimelate semialdehyde accepted, 7-aminoheptanoate synthesized: conclusion from reverse and forward assays of Example 1
Method: (§1) A nucleotide sequence encoding an N-terminal His-tag was added to the nucleic acid sequences from Chromobacterium violaceum, Pseudomonas syringae, Rhodobacter sphaeroides, and Vibrio fluvialis encoding the ω-transaminases of SEQ ID NOs: 7, 9, 10 and 12, respectively (see FIG. 6) such that N-terminal HIS tagged ω-transaminases could be produced. Each of the resulting modified genes was cloned into a pET21a expression vector under control of the T7 promoter and each expression vector was transformed into a BL21[DE3] E. coli host. The resulting recombinant E. coli strains were cultivated at 37° C. in a 250 mL shake flask culture containing 50 mL LB media and antibiotic selection pressure, with shaking at 230 rpm. Each culture was induced overnight at 16° C. using 1 mM IPTG.
(§2) The pellet from each induced shake flask culture was harvested via centrifugation. Each pellet was resuspended and lysed via sonication. The cell debris was separated from the supernatant via centrifugation and the cell free extract was used immediately in enzyme activity assays.
Enzyme activity in the forward direction (i.e., pimelate semialdehyde to 7-aminoheptanoate) was confirmed for the transaminases of SEQ ID NO 9, SEQ ID NO 10 and SEQ ID NO 12. Enzyme activity assays were performed in a buffer composed of a final concentration of 50 mM HEPES buffer (pH=7.5), 10 mM pimelate semialdehyde, 10 mM L-alanine and 100 μM pyridoxyl 5′ phosphate. Each enzyme activity assay reaction was initiated by adding a cell free extract of the ω-transaminase gene product or the empty vector control to the assay buffer containing the pimelate semialdehyde and incubated at 25° C. for 4 h, with shaking at 250 rpm. The formation of pyruvate was quantified via RP-HPLC.

[2] = ω-transaminase activity: 7-aminoheptanol to 7-oxoheptanol (L-alanine formation by RP-HPLC); conditions: for acceptance of 7-aminoheptanol as substrate (conversion of pyruvate to L-alanine): cell free extract, 10 mM 7-aminoheptanol, 10 mM pyruvate, pH 7.5, 25° C., 4 h, against the empty vector control (FIG. 17); for acceptance of 7-oxoheptanol as substrate forming 7-aminoheptanol: concluded from the reversibility of the ω-transaminase activity (Example 1)
Method: A nucleotide sequence encoding an N-terminal His-tag was added to the Chromobacterium violaceum, Pseudomonas syringae and Rhodobacter sphaeroides nucleic acids encoding the ω-transaminases of SEQ ID NOs: 7, 9 and 10, respectively (see FIG. 6) such that N-terminal HIS tagged ω-transaminases could be produced. The modified genes were cloned into a pET21a expression vector under the T7 promoter. Each expression vector was transformed into a BL21[DE3] E. coli host. Each resulting recombinant E. coli strain were cultivated at 37° C. in a 250 mL shake flask culture containing 50 mL LB media and antibiotic selection pressure, with shaking at 230 rpm. Each culture was induced overnight at 16° C. using 1 mM IPTG.
as §2
Enzyme activity assays in the reverse direction (i.e., 7-aminoheptanol to 7-oxoheptanol) were performed in a buffer composed of a final concentration of 50 mM HEPES buffer (pH=7.5), 10 mM 7-aminoheptanol, 10 mM pyruvate, and […] pyridoxyl 5′ phosphate. Each enzyme activity assay reaction was initiated by adding cell free extract of the ω-transaminase gene product or the empty vector control to the assay buffer containing the 7-aminoheptanol and then incubated at 25° C. for 4 h, with shaking at 250 rpm. The formation of L-alanine was quantified via RP-HPLC.

[3] = ω-transaminase activity, reverse direction: 7-aminoheptanoate to pimelate semialdehyde (L-alanine formation by RP-HPLC); conditions: cell free extract, 10 mM 7-aminoheptanoate, 10 mM pyruvate, pH 7.5, 25° C., 4 h; against the empty vector control (FIG. 13)
Method: as §1, §2
Enzyme activity assays in the reverse direction (i.e., 7-aminoheptanoate to pimelate semialdehyde) were performed in a buffer composed of a final concentration of 50 mM HEPES buffer (pH=7.5), 10 mM 7-aminoheptanoate, 10 mM pyruvate and 100 μM pyridoxyl 5′ phosphate. Each enzyme activity assay reaction was initiated by adding cell free extract of the ω-transaminase gene product or the empty vector control to the assay buffer containing the 7-aminoheptanoate and incubated at 25° C. for 4 h, with shaking at 250 rpm. The formation of L-alanine from pyruvate was quantified via RP-HPLC.

[4] = carboxylate reductase activity: N7-acetyl-7-aminoheptanoate to N7-acetyl-7-aminoheptanal (NADPH consumption, A340); conditions: purified enzyme enhanced by sfp gene product, 2 mM N7-acetyl-7-aminoheptanoate, pH 7.5, room temperature, 20 min; against the empty vector control (FIG. 10)
Method: The activity of each of the N-terminal His-tagged carboxylate reductases of SEQ ID NOs: 3, 5, and 6 (see Examples 2 and 3, and FIG. 6) for converting N7-acetyl-7-aminoheptanoate to N7-acetyl-7-aminoheptanal was assayed in triplicate in a buffer composed of a final concentration of 50 mM HEPES buffer (pH=7.5), 2 mM N7-acetyl-7-aminoheptanoate, 10 mM MgCl2, 1 mM ATP, and 1 mM NADPH. The assays were initiated by adding purified carboxylate reductase and phosphopantetheine transferase or the empty vector control to the assay buffer containing the N7-acetyl-7-aminoheptanoate then incubated at room temperature for 20 min. The consumption of NADPH was monitored by absorbance at 340 nm.

Molecule	acceptance of pimelate semialdehyde as substrate (conversion of L-alanine to pyruvate) [1]	reversibility of ω-transaminase activity: pimelate semialdehyde accepted, 7-aminoheptanoate synthesized [1]	acceptance of 7-aminoheptanol as substrate (conversion of pyruvate to L-alanine) [2]	acceptance of 7-oxoheptanol as substrate forming 7-aminoheptanol [2]	acceptance of 7-aminoheptanoate as substrate (conversion of pyruvate to L-alanine) [3]	acceptance of N7-acetyl-7-aminoheptanoate as substrate (NADPH consumption) [4]
SEQ ID NO: 10: Rhodobacter sphaeroides ω-transaminase, N-terminal HIS tagged	accepted pimelate semialdehyde as substrate	accepted pimelate semialdehyde as substrate and synthesized 7-aminoheptanoate as a reaction product	accepted 7-aminoheptanol as substrate	accept 7-oxoheptanol as substrate and form 7-aminoheptanol	accepted 7-aminoheptanoate as substrate	
B1						accepted N7-acetyl-7-aminoheptanoate as substrate
B2	accepted pimelate semialdehyde as substrate	accepted pimelate semialdehyde as substrate and synthesized 7-aminoheptanoate as a reaction product			accepted 7-aminoheptanoate as substrate	
B3	accepted pimelate semialdehyde as substrate	accepted pimelate semialdehyde as substrate and synthesized 7-aminoheptanoate as a reaction product	accepted 7-aminoheptanol as substrate	accept 7-oxoheptanol as substrate and form 7-aminoheptanol	accepted 7-aminoheptanoate as substrate	
